Data taken from doi:10.1101/2021.06.14.448324.

What was measured:
[1] = target: DTX3L D2 domain (human); assay: cross-linking
[2] = target: DTX3L D1 domain (human); assay: cross-linking

Row | Substance | stoichiometry N [1] | stoichiometry N [2]
1 | DTX3L D2 domain (domain or fragment) | 4 | –
2 | DTX3L D1 domain (domain or fragment) | – | 2
